Target: type I collagen (triple helix)
Experiment: SPR
Details: scale: molecules of HSP47 per triple helix of type I collagen

B1: recombinant mouse HSP47 (natural protein)
chain: AEVKKPLEAAAPGTAEKLSSKATTLAERSTGLAFSLYQAMAKDQAVENILLSPLVVASSLGLVSLGGKATTASQAKAVLSAEKLRDEEVHTGLGELLRSLSNSTARNVTWKLGSRLYGPSSVSFADDFVRSSKQHYNCEHSKINFRDKRSALQSINEWASQTTDGKLPEVTKDVERTDGALLVNAMFFKPHWDEKFHHKMVDNRGFMVTRSYTVGVTMMHRTGLYNYYDDEKEKLQMVEMPLAHKLSSLIILMPHHVEPLERLEKLLTKEQLKAWMGKMQKKAVAISLPKGVVEVTHDLQKHLAGLGLTEAIDKNKADLSRMSGKKDLYLASVFHATAFEWDTEGNPFDQDIYGREELRSPKLFYADHPFIFLVRDNQSGSLLFIGRLVRPKGDKMRDEL
Q: For B1, which stoichiometry N is on record?
A: > 7

Source: article PMC2120794
